The values that follow come from article PMC4335062, “Data-Driven Prediction and Design of bZIP Coiled-Coil Interactions” (PLoS Computational Biology, 2015).

Test [1] has as its target X-box binding protein 1 (human) (UniProt P17861). The test is described as follows: FRET or BRET; direct-binding FRET in 384-well plates; rhodamine-labelled design (acceptor) titrated 0 to 1 uM into 10 nM fluorescein-labelled bZIP (donor); 150 mM KCl, 50 mM potassium phosphate pH 7.4, 0.1% Tween-20, 0.1% BSA; 4 °C. (In general: BRET reads energy transfer from a luciferase to a nearby fluorophore.)

Test [2] has as its target T1, MAFB (Homo sapiens, UniProt Q9Y5Q3). The description is as above.
The target in another test is ATF2 (human) (UniProt P15336). Described as above.
The target in test [3] is T2, JUN (Homo sapiens, UniProt P05412). The test is described as above.
T2 sequence (P05412 whole entry): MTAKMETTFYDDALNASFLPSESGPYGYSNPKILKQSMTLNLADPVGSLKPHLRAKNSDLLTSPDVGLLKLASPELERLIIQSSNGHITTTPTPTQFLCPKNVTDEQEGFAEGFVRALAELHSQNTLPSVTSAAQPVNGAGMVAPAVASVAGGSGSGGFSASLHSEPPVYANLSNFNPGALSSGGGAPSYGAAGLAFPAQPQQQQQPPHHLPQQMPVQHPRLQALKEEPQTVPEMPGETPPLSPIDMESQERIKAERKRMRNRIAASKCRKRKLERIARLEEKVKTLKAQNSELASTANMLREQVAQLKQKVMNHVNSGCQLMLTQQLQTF
Test [4] addresses T3, ATF6B (Homo sapiens, UniProt Q99941). Described as above.
The target in another test is ATF5 (human) (UniProt Q9Y2D1). Described as above.
ATF5 (human), sequence (Q9Y2D1 whole entry): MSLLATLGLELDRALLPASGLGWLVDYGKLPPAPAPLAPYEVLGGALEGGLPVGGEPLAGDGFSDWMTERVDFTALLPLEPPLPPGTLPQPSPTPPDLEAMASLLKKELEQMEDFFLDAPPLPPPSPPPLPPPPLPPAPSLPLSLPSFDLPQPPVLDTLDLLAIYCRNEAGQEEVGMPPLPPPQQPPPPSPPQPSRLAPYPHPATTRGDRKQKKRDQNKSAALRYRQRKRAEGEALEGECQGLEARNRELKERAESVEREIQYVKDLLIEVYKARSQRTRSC
The target in test [5] is MAFF (human) (UniProt Q9ULX9). The test is described as above.
MAFF (human), sequence (Q9ULX9 whole entry): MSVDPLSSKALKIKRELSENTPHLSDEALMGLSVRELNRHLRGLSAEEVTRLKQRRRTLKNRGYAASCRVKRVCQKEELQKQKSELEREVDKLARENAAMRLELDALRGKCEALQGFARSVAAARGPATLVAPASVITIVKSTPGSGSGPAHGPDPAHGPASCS
Test [6] has as its target T4, MAF (Homo sapiens, UniProt O75444). The test is described as above.
Test [7] addresses ATF4 (human) (UniProt P18848). The test is described as follows: FRET or BRET; direct-binding FRET in 384-well plates; rhodamine-labelled design (acceptor) titrated 0 to 1 uM into 10 nM fluorescein-labelled bZIP (donor); 150 mM KCl, 50 mM potassium phosphate pH 7.4, 0.1% Tween-20, 0.1% BSA; 23 °C.
In test [8] the target is T3, ATF6B. The description is as above.
In test [9] the target is MAFF (human) (UniProt Q9ULX9). The test is described as above.
Test [10] addresses T4, MAF. The test is described as above.
The target in test [11] is T1, MAFB. Nature of the test: FRET or BRET; direct-binding FRET in 384-well plates; rhodamine-labelled design (acceptor) titrated 0 to 1 uM into 10 nM fluorescein-labelled bZIP (donor); 150 mM KCl, 50 mM potassium phosphate pH 7.4, 0.1% Tween-20, 0.1% BSA; 37 °C.
The next test deals with BATF2 (human) (UniProt Q8N1L9). The test is described as above.
BATF2 (human), sequence (Q8N1L9 whole entry): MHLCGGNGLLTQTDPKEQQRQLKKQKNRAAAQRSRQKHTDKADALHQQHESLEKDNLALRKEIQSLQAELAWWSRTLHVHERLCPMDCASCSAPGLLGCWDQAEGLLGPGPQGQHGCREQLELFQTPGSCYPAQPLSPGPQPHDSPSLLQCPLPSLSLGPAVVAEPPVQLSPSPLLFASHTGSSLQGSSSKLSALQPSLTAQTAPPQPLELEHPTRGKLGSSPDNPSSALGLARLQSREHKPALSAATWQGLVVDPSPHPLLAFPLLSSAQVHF
Test [12] concerns the target T5, FOS (Homo sapiens, UniProt P01100). The test is described as above.
In test [13] the target is MAFF (human) (UniProt Q9ULX9). The test is described as above.
A further test has as its target BATF (human) (UniProt Q16520). Described as above.
The target of test [14] is T5, FOS. The test is described as follows: FRET or BRET; direct-binding FRET in 384-well plates; rhodamine-labelled design (acceptor) titrated 0 to 1 uM into 10 nM fluorescein-labelled bZIP (donor); 150 mM KCl, 50 mM potassium phosphate pH 7.4, 0.1% Tween-20, 0.1% BSA; 4 °C.
Test [15] addresses Activating Transcription Factor (ATF) 3 (human) (UniProt P18847). The test is described as above.
In another test the target is DBP (human) (UniProt Q10586). Described as above.
DBP (human), sequence (Q10586 whole entry): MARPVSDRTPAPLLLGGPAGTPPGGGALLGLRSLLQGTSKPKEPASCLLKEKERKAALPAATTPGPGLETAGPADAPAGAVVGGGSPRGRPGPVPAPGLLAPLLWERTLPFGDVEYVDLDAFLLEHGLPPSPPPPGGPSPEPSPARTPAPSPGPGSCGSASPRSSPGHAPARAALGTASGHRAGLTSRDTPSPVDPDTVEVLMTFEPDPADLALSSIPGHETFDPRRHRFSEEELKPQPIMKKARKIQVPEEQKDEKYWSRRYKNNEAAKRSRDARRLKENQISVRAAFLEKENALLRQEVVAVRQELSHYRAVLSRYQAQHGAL
The target in test [16] is T2, JUN. Nature of the test: FRET or BRET; direct-binding FRET in 384-well plates; rhodamine-labelled design (acceptor) titrated 0 to 1 uM into 10 nM fluorescein-labelled bZIP (donor); 150 mM KCl, 50 mM potassium phosphate pH 7.4, 0.1% Tween-20, 0.1% BSA; 23 °C.
The target of test [17] is ATF4 (human) (UniProt P18848). The test is described as follows: FRET or BRET; direct-binding FRET in 384-well plates; rhodamine-labelled design (acceptor) titrated 0 to 1 uM into 10 nM fluorescein-labelled bZIP (donor); 150 mM KCl, 50 mM potassium phosphate pH 7.4, 0.1% Tween-20, 0.1% BSA; 37 °C.
ATF4 (human), sequence (P18848 whole entry): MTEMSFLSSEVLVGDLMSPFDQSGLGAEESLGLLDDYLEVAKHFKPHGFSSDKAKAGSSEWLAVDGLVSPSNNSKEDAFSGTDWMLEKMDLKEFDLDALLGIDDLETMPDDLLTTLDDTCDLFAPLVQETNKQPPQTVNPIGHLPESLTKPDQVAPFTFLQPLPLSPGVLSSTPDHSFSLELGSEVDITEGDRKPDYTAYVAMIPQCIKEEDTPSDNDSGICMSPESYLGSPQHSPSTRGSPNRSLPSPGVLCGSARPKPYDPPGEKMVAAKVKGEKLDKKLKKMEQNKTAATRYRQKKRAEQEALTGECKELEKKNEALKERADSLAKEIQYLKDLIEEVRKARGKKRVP
The target of test [18] is T2, JUN. Described as above.
A further test has as its target CREB1 (human) (UniProt P16220). Described as above.
Test [19] has as its target X-box binding protein 1 (human) (UniProt P17861). Described as above.
Test [20] deals with T3, ATF6B. The test is described as above.
The next test has as its target MAFG (Homo sapiens, UniProt O15525). Described as above.
Test [21] deals with Activating Transcription Factor (ATF) 3 (human) (UniProt P18847). Described as above.
Activating Transcription Factor (ATF) 3 (human), sequence (P18847 whole entry): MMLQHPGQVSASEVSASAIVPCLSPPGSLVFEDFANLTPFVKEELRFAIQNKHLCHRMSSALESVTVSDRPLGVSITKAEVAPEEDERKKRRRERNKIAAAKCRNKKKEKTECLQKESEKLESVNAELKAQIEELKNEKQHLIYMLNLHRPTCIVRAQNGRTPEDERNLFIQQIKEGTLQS
The next test has as its target NFE2 (human) (UniProt Q16621). The test is described as above.
The target of a further test is NFE2L3 (human) (UniProt Q9Y4A8). Described as above.
NFE2L3 (human), sequence (Q9Y4A8 whole entry): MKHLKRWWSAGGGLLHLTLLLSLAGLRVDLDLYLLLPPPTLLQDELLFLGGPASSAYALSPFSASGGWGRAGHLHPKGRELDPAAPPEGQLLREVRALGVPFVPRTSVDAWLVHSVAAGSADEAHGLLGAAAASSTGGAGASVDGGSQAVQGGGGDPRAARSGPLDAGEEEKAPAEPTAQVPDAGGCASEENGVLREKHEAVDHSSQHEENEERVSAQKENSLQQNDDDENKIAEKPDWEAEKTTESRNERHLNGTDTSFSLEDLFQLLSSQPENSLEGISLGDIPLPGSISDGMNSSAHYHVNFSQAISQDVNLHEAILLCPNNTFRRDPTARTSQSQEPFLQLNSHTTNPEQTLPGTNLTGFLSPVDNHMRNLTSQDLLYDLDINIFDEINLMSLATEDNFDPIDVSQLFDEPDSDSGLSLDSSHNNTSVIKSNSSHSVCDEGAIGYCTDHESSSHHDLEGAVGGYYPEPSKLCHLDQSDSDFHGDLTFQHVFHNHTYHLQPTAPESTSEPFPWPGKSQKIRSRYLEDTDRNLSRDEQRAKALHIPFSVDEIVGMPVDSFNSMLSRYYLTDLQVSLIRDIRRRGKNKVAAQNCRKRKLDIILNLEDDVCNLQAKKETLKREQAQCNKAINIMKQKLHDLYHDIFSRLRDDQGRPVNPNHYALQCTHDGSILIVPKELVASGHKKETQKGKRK

Where “and” joins values, the source holds several entries; their conditions need not be identical. Equal entries are not always repeated. Where no end group is shown, it is not given here.

T5 sequence (P01100 whole entry): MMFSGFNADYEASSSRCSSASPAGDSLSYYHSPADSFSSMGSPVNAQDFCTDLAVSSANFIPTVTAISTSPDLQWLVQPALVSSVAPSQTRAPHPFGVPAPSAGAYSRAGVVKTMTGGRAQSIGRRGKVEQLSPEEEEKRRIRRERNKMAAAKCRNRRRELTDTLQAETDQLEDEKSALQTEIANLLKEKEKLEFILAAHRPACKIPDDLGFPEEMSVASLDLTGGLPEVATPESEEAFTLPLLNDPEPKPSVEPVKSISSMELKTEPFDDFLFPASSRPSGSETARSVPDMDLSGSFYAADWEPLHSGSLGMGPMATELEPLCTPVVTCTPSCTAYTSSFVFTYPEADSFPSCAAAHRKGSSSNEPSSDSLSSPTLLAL
T3 sequence (Q99941 whole entry): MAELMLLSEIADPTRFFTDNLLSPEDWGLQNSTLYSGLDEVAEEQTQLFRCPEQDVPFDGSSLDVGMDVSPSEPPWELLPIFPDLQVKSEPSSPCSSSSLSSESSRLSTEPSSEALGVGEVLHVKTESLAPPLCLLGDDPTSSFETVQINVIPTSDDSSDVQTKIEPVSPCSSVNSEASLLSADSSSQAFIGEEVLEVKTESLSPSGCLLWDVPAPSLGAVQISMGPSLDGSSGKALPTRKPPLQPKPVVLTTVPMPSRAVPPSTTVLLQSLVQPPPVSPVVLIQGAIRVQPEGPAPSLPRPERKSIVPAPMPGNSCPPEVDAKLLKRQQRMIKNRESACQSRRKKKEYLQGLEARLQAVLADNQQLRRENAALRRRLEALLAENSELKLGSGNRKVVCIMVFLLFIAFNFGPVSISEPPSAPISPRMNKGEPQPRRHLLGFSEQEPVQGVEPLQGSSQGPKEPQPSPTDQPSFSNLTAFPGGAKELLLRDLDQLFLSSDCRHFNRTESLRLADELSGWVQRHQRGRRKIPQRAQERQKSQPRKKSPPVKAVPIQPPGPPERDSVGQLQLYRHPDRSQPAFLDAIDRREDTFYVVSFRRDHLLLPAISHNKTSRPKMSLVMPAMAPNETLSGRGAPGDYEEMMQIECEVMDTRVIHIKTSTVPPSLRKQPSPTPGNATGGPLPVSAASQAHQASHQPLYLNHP
T1 sequence (Q9Y5Q3 whole entry): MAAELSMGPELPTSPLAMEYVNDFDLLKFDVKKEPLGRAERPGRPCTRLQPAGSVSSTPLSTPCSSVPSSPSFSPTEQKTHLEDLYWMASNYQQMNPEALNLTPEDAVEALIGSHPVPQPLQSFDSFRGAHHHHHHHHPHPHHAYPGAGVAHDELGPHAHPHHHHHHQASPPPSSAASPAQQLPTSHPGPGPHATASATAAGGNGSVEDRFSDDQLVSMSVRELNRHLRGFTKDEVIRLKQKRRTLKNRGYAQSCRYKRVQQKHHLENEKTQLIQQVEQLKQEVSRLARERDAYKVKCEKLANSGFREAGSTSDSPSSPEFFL
X-box binding protein 1 (human), sequence (P17861 whole entry): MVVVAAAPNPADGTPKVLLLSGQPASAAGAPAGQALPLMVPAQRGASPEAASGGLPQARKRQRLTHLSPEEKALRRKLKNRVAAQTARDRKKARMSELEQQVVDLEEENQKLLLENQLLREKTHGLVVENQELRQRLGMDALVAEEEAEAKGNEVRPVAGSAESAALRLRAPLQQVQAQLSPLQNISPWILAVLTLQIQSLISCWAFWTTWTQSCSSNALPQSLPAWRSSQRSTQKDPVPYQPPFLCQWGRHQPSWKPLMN
T4 sequence (O75444 whole entry): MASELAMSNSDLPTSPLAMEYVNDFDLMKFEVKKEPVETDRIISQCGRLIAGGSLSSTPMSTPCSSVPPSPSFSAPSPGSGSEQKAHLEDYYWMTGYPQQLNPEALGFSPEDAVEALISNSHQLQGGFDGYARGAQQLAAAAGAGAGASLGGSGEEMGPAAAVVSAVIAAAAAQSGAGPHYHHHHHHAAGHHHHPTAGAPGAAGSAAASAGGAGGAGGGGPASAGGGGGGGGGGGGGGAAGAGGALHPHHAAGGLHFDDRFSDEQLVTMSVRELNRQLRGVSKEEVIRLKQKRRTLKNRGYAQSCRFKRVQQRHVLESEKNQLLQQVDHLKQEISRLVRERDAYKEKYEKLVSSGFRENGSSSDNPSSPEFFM
BATF (human), sequence (Q16520 whole entry): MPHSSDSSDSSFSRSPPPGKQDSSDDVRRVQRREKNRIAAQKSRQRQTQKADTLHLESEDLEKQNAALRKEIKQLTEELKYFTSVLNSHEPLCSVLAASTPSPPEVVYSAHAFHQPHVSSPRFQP

B1: ATF5-d1 labeled at the N-terminus (designed binder)
chain: GESKEYKKGSGSC(Rhodamine Red C2‑maleimide)GKRIAYLRQRIAELRNENHVLESRIQRMEKEKDALQQDRDHLEYEL
Turning to B1, the Kd (usually the constant that tells how readily two partners part at equilibrium) in test [1] was more than 5 µM; with MAFB [2], more than 5 µM; with ATF2 (human), more than 5 µM; in the test with JUN [3], more than 5 µM; with ATF6B [4], more than 5 µM; in the test with ATF5 (human), 2.9 nM and 6.9 nM. Further, the Kd is more than 5 µM with MAFF (human) [5]; more than 5 µM with MAF [6]; 8.5 nM with ATF4 (human) [7]; more than 5 µM with ATF6B [8]; more than 5 µM with MAFF (human) [9]; more than 5 µM with MAF [10]. The Kd in the test with MAFB [11] is more than 5 µM; with BATF2 (human) it was more than 5 µM; with FOS [12], more than 5 µM; with MAFF (human) [13] it was 116 nM; with BATF (human), more than 5 µM.

B2: JUN-d1 labeled at the C-terminus (designed binder)
chain: GESKEYKKGSGSSIAATLEKEEANLEKMNKKLAAEIESLLKEKDKLESVLNYHEGC
modifications: also: Cys56: Rhodamine Red C2-maleimide or fluorescein-5-maleimide, by assay
For B2, the Kd in the test with FOS [14] was more than 5 µM; in [15] it was more than 5 µM; in the test with DBP (human), more than 5 µM; with JUN [16], 1.1 nM and 1.2 nM and 1 nM; with ATF4 (human) [17], 557 nM and 529 nM and 543 nM; with JUN [18], 5.3 nM and 5.5 nM and 6.6 nM. Further, the Kd (with CREB1 (human); in test [19]; with ATF6B [20]; with FOS [12]; in the test with MAFG; in test [21]) was more than 5 µM each time. In addition, the results for the equilibrium dissociation constant (Kd) with MAFF (human) [13], with NFE2 (human) and in the test with NFE2L3 (human) were more than 5000 nM, more than 5 µM and more than 5 µM, respectively.
